# Article PMC2120307
# Columns and labels:
# [1] = biological target: recombinant purified neutrophil adhesion inhibitor NIF (rNIF) of the hookworm Ancylostoma caninum (Ancylostoma caninum); experiment: flow cytometry on cells
# [2] = biological target: recombinant purified neutrophil adhesion inhibitor NIF (rNIF) of the hookworm Ancylostoma caninum (Ancylostoma caninum); experiment: ELISA
substance,measurement,setting,value
"recombinant CD11b A-domain (r11bA), wild type (domain or fragment)",IC50,[1],1 nM
same,IC50,[2],1 nM
